Assay results as given in patent publication US20150024453A1, “INTEGRATED PROCESS FOR DUAL BIOCATALYTIC CONVERSION OF CO2 GAS INTO BIO-PRODUCTS BY ENZYME ENHANCED HYDRATION AND BIOLOGICAL CULTURE” (CO2 SOLUTIONS INC., priority 2012, published 2015).

Test: Tests of carbonic anhydrase activity in carbonate absorption solutions
Type: biochemical
Description: The absorption solution that is fed to the enzymatic bicarbonate production unit may be a sodium carbonate solution having a sodium carbonate concentration between about 0.3M and about 2.4M (temperature being between about 30 t for a concentration of about 2.5M) or a potassium carbonate solution having a potassium carbonate concentration between about 1M and about 2M. Tests have confirmed that carbonic anhydrase has good activity in sodium carbonate between 0.3M and 0.5M and in potassium carbonate at 1.45M. Halophile-type carbonic anhydrase, with elevated resistance to salt, may be used for higher concentrations. As opposed to carbonates, bicarbonates are less soluble (two times less approximately) and, therefore, if precipitation occurs, it would be of bicarbonate salts rather than carbonate salts. Cooling the ion loaded solution exiting the enzymatic CO2 capture unit may also encourage precipitation, as the solubility of bicarbonates and carbonates would be lowered. For sodium bicarbonate, temperature may be carefully adjusted since below about 30° C., a solution at 2.5M would not be soluble. The following Solubility Table may be used to set, adjust or control the carbonate or bicarbonate concentration as well as temperature in the enzymatic bicarbonate production and CO2 capture unit: […]

carbonic anhydrase
enzyme activity (in potassium carbonate at 1.45M): good activity | enzyme activity (in sodium carbonate between 0.3M and 0.5M): good activity
